The values that follow come from US20210386788A1, “ER TUNABLE PROTEIN REGULATION” (Obsidian Therapeutics, Inc., priority 2018, published 2021).

What all share (assay type): cell-based, human
One test deals with HEK 293T cells. Kind of test: IL12 expression of ER-DD flexi IL12 constructs in transiently transfected HEK 293T cells (MSD assay). To be noted: for IL12 expression, 1 μM BZD / IL12 expression, Vehicle: HEK 293T transiently transfected, MSD assay; for IL12 expression, 1 μM BZD: 1 μM Bazedoxifene 24 hours; for IL12 expression, Vehicle: vehicle control 24 hours; for Stabilization Ratio: IL12 with 1 μM BZD versus vehicle. How it is done:
HEK 293T cells were transiently transfected with constructs containing ER-DDs fused to flexi IL12 with or without intervening furin site to generate constructs: OT-001569, OT-001737. Cells were then treated with 1 μM Bazedoxifene (BZD) or vehicle control for 24 hours and IL12 levels were measured by MSD assay Table 11.

In test [1] the test system is HEK293T cells. Kind of test: CD19 CAR cell surface expression in transfected HEK293T cells (FACS with CD19-Fc). To be noted: measure of transfection efficiency. How it is done: (§1) HEK293T cells were transiently transfected with 1 μg DNA from each construct listed in the first column of Table 13 and incubated in DMEM with 10% FBS at 37° C., 5% CO2 for 24 hrs. Following the incubation, 1 μM of Bazedoxifene (BZD) or vehicle was added and cells were further incubated for 24 hrs. Following the incubation, CD19 CAR expression on the cell surface was quantified using FACS with CD19-Fc reagent, as a measure of transfection efficiency. IL12 levels in the media were quantified using MSD assay for p40. The IL12 and CD19 levels are shown in Table 13, where SD indicates standard deviation and SR indicates stabilization ratio. The stabilization ratio was calculated using the average IL12 values.

The test system of test [2] is HEK293T cells. Kind of test: IL12 p40 in media of HEK293T cells transfected with IL12-CD19 CAR tandem constructs (MSD assay). To be noted: for IL12p40 DMSO Average: vehicle 24 hrs (absence of ligand). As for the experimental part: as §1
For another test, the system named is primary T cells. Kind of test: CD19 CAR expression on lentivirus transduced primary T cells (flow cytometry with CD19-Fc). To be noted: both day 7 and day 9. How it is done: Primary T cells were activated with CD3/CD28 Dynabeads at 3:1 Bead: Cell ratio overnight, then transduced with OT-001792 lentivirus. On day 7 of the T cell expansion, CAR expression was measured by flow cytometry with CD19-Fc on cells treated overnight in the presence (34% positive) or absence (0.6% positive) of 1 μM Bazedoxifene. After the T cells had expanded for 10 days, they were mixed with CD19-expressing Nalm6 target cells at ratios of 10:1 and 2.5:1 total T cells:Nalm6 cells and cultured for 3 days.
Primary T cells were activated with CD3/CD28 Dynabeads at 3:1 Bead:Cell ratio overnight, then transduced with lentiviruses derived from the indicated constructs. On day 7 or day 9 (as indicated) of the T cell expansion, CAR expression was measured by flow cytometry with CD19-Fc on cells incubated for 24 hours with 1 μM Bazedoxifene or 1 μM Raloxifene or DMSO. […] At day 9 the basal percentage of CAR positive cells for the same constructs was even lower at approximately 20% i.e. in the absence of ligand and about 32-45% in the presence of either ligand. […] This was true at both day 7 and day 9.
Human donor T cells were thawed and activated overnight in the presence of CD3/CD28 Dynabeads at 3:1 bead:cell ratio, then transduced with lentivirus related to OT-002158, or OT-001786. Cells were expanded over the course of 10 days, with fresh media added to maintain cells at around 0.5×10^6 cells/mL. On day 9, an aliquot of cells was removed, and treated with 1 μM Bazedoxifene overnight or DMSO vehicle control, then stained with 10 μg/mL CD19-Fc. Histograms showing CAR expression from a Live Singlet cell gate were plotted.
Human donor T cells were thawed and activated overnight in the presence of CD3/CD28 Dynabeads at 3:1 bead:cell ratio, then transduced with lentivirus from the constructs. Cells were expanded over the course of 10 days, and fresh media was added to maintain cells around 0.5×10^6 cells/ml. On day 9, an aliquot of cells were removed, treated with 1 μM Bazedoxifene overnight, then stained with 10 μg/mL CD19-Fc. Histograms showing CAR expression from a Live Singlet cell gate were plotted. The data are shown in Table 19 and Table 20 where data are presented as % CAR positive cells, where SR indicates stabilization ration.
T cells were transduced with OT-00179, OT-002158, OT-001407 or empty vector and expanded as described herein, frozen on day 10. To confirm the expression and function of this large scale expansion for in vivo use, cells were thawed and incubated overnight in the presence of CD3/28 beads (1:1 bead:cell ratio) and with or without 1 μM Bazedoxifene. FACS staining with 1 μg/mL CD19-Fc was performed to measure the surface expression of CD19-CAR. The data are provided in Table 21 as the percentage CAR positive cells.

B1: OT-001737: ER-DD fused to flexi IL12, with or without intervening furin site (protein)
chain: MCHQQLVISWFSLVFLASPLVAGSSLALSLTADQMVSALLDAEPPILYSEYDPTRPFSEASMMGLLTNLADRELVHMINWAKRVPGFVDLALHDQVHLLECAWMEILMIGLVWRSMEHPGKLLFAPNLLLDRNQGKCVEGGVEIFDMLLATSSRFRMMNLQGEEFVCLKSIILLNSGVYTFLSSTLKSLEEKDHIHRVLDKITDTLIHLMAKAGLTLQQQHQRLAQLLLILSHIRHMSSKRMEHLYSMKCKNVVPLSDLLLEMLDAHRLRTKRIWELKKDVYVVELDWYPDAPGEMVVLTCDTPEEDGITWTLDQSSEVLGSGKTLTIQVKEFGDAGQYTCHKGGEVLSHSLLLLHKKEDGIWSTDILKDQKEPKNKTFLRCEAKNYSGRFTCWWLTTISTDLTFSVKSSRGSSDPQGVTCGAATLSAERVRGDNKEYEYSVECQEDSACPAAEESLPIEVMVDAVHKLKYENYTSSFFIRDIIKPDPPKNLQLKPLKNSRQVEVSWEYPDTWSTPHSYFSLTFCVQVQGKSKREKKDRVFTDKTSATVICRKNASISVRAQDRYYSSSWSEWASVPCSGGGGSGGGGSGGGGSRNLPVATPDPGMFPCLHHSQNLLRAVSNMLQKARQTLEFYPCTSEEIDHEDITKDKTSTVEACLPLELTKNESCLNSRETSFITNGSCLASRKTSFMMALCLSSIYEDLKMYQVEFKTMNAKLLMDPKRQIFLDQNMLAVIDELMQALNFNSETVPQKSSLEEPDFYKTKIKLCILLHAFRIRAVTIDRVMSYLNAS
For the molecule B1, in the test with HEK 293T cells, the “IL12 expression, 1 μM BZD” value came to 79706.8; the “IL12 expression, Vehicle” value is given as 10186.4; the “Stabilization Ratio” value is 7.8.

B2: OT-001356: IL12-CD19 CAR tandem construct listed without ER DD mutation in Table 13 (control) (protein)
chain: IWELKKDVYVVELDWYPDAPGEMVVLTCDTPEEDGITWTLDQSSEVLGSGKTLTIQVKEFGDAGQYTCHKGGEVLSHSLLLLHKKEDGIWSTDILKDQKEPKNKTFLRCEAKNYSGRFTCWWLTTISTDLTFSVKSSRGSSDPQGVTCGAATLSAERVRGDNKEYEYSVECQEDSACPAAEESLPIEVMVDAVHKLKYENYTSSFFIRDIIKPDPPKNLQLKPLKNSRQVEVSWEYPDTWSTPHSYFSLTFCVQVQGKSKREKKDRVFTDKTSATVICRKNASISVRAQDRYYSSSWSEWASVPCSGGGGSGGGGSGGGGSRNLPVATPDPGMFPCLHHSQNLLRAVSNMLQKARQTLEFYPCTSEEIDHEDITKDKTSTVEACLPLELTKNESCLNSRETSFITNGSCLASRKTSFMMALCLSSIYEDLKMYQVEFKTMNAKLLMDPKRQIFLDQNMLAVIDELMQALNFNSETVPQKSSLEEPDFYKTKIKLCILLHAFRIRAVTIDRVMSYLNASGS
Take B2: the “Surface CAR” value in the test with HEK293T cells [1] is reported as 40%. The “IL12p40 DMSO Average” value with HEK293T cells [2] (HEK293T, 1 μg DNA) worked out at 203531.67 pg/mL.

B3: OT-001569: ER-DD (T371A, L384M, M421G, N519S, G521R, Y537S) fused to flexi IL12 (protein)
chain: MCHQQLVISWFSLVFLASPLVAGSSLALSLTADQMVSALLDAEPPILYSEYDPTRPFSEASMMGLLTNLADRELVHMINWAKRVPGFVDLALHDQVHLLECAWMEILMIGLVWRSMEHPGKLLFAPNLLLDRNQGKCVEGGVEIFDMLLATSSRFRMMNLQGEEFVCLKSIILLNSGVYTFLSSTLKSLEEKDHIHRVLDKITDTLIHLMAKAGLTLQQQHQRLAQLLLILSHIRHMSSKRMEHLYSMKCKNVVPLSDLLLEMLDAHRLGSIWELKKDVYVVELDWYPDAPGEMVVLTCDTPEEDGITWTLDQSSEVLGSGKTLTIQVKEFGDAGQYTCHKGGEVLSHSLLLLHKKEDGIWSTDILKDQKEPKNKTFLRCEAKNYSGRFTCWWLTTISTDLTFSVKSSRGSSDPQGVTCGAATLSAERVRGDNKEYEYSVECQEDSACPAAEESLPIEVMVDAVHKLKYENYTSSFFIRDIIKPDPPKNLQLKPLKNSRQVEVSWEYPDTWSTPHSYFSLTFCVQVQGKSKREKKDRVFTDKTSATVICRKNASISVRAQDRYYSSSWSEWASVPCSGGGGSGGGGSGGGGSRNLPVATPDPGMFPCLHHSQNLLRAVSNMLQKARQTLEFYPCTSEEIDHEDITKDKTSTVEACLPLELTKNESCLNSRETSFITNGSCLASRKTSFMMALCLSSIYEDLKMYQVEFKTMNAKLLMDPKRQIFLDQNMLAVIDELMQALNFNSETVPQKSSLEEPDFYKTKIKLCILLHAFRIRAVTIDRVMSYLNAS
For B3, in the test on HEK 293T cells, the “IL12 expression, 1 μM BZD” value came to 109878; the “IL12 expression, Vehicle” value came to 11529.1; the “Stabilization Ratio” value is recorded as 9.5. The “Surface CAR” value in the test on HEK293T cells [1] stood at 0.1%. The “IL12p40 1 μM BZD Average” value in the test with HEK293T cells [2] (HEK293T, 1 μg DNA, 1 μM Bazedoxifene 24 hrs) was 75542.57 pg/mL. The “IL12p40 DMSO Average” value with HEK293T cells [2] (HEK293T, 1 μg DNA) turned out to be 6443.64 pg/mL. Further, the “SR (stabilization ratio)” value in the test with HEK293T cells [2] (calculated using the average IL12 values, 1 μM BZD versus DMSO) is given as 11.72.

B4: OT-001791: CD8α leader; Linker (RS); ER (T371A, L384M, M421G, N519S, G521R, Y537S); Furin cleavage site; CD19 CAR; SEQ ID NO. 404 (protein)
chain: MALPVTALLLPLALLLHAARPRSSLALSLTADQMVSALLDAEPPILYSEYDPTRPFSEASMMGLLTNLADRELVHMINWAKRVPGFVDLALHDQVHLLECAWMEILMIGLVWRSMEHPGKLLFAPNLLLDRNQGKCVEGGVEIFDMLLATSSRFRMMNLQGEEFVCLKSIILLNSGVYTFLSSTLKSLEEKDHIHRVLDKITDTLIHLMAKAGLTLQQQHQRLAQLLLILSHIRHMSSKRMEHLYSMKCKNVVPLSDLLLEMLDAHRLGTGAEDPRPSRKRRSLGDVGEIVMTQSPATLSLSPGERATLSCRASQDISKYLNWYQQKPGQAPRLLIYHTSRLHSGIPARFSGSGSGTDYTLTISSLQPEDFAVYFCQQGNTLPYTFGQGTKLEIKGGGGSGGGGSGGGGSQVQLQESGPGLVKPSETLSLTCTVSGVSLPDYGVSWIRQPPGKGLEWIGVIWGSETTYYSSSLKSRVTISKDNSKNQVSLKLSSVTAADTAVYYCAKHYYYGGSYAMDYWGQGTLVTVSSTTTPAPRPPTPAPTIASQPLSLRPEACRPAAGGAVHTRGLDFACDIYIWAPLAGTCGVLLLSLVITLYCKRGRKKLLYIFKQPFMRPVQTTQEEDGCSCRFPEEEEGGCELRVKFSRSADAPAYKQGQNQLYNELNLGRREEYDVLDKRRGRDPEMGGKPRRKNPQEGLYNELQKDKMAEAYSEIGMKGERRRGKGHDGLYQGLSTATKDTYDALHMQALPPR
On to B4, for which the figures for the “percentage of CAR positive cells” value in the test on primary T cells (absence of ligand) and with primary T cells (presence of ligand) were “undetectable” and “about 5%”, respectively.
